Experimental data as given in patent publication US20230250154A1 (CYTONICS, published 2023).

Experiments:
Experiment in all cases: cell-based or functional assay
ADAMTS5 = target: T1, ADAMTS5 (human, UniProt Q9UNA0 262-622, limits assumed)
T1 sequence (looked up): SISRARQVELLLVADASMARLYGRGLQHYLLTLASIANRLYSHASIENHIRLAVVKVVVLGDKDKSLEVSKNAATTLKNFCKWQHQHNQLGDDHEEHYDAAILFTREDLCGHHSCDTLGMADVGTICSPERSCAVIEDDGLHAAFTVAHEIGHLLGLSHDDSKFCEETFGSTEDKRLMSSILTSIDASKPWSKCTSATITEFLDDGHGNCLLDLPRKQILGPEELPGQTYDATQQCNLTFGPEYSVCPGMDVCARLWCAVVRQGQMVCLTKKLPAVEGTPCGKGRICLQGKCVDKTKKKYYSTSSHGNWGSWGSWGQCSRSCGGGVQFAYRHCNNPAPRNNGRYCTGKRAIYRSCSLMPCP

MMP13 = MMP13 (human, UniProt P45452 104-471, limits assumed)
ADAMTS4 = target: T2, ADAMTS4 (human, UniProt O75173 213-685, limits assumed)
T2 sequence (looked up): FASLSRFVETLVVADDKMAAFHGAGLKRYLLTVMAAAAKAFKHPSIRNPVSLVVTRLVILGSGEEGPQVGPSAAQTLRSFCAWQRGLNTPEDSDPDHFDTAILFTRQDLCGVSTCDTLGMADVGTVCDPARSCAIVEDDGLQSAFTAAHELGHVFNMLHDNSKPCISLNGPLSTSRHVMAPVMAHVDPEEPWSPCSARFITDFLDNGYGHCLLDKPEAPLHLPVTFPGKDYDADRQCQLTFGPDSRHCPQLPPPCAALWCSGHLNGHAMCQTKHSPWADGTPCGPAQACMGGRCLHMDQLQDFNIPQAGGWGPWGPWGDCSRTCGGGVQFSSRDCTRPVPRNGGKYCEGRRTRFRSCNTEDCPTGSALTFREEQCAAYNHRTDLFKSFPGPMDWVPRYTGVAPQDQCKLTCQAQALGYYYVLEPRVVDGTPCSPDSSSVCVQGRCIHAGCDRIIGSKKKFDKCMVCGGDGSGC

Protease Inhibition (% of WT) (ADAMTS5): 126 % of WT
Protease Inhibition (% of WT) (MMP13): 122 % of WT
Protease Inhibition (% of WT) (ADAMTS4): 86 % of WT
B1: Variant A2M, bait region SEQ ID NO 123 (other)
chain: SVSGKPQYMVLVPSLLHTETTEKGCVLLSYLNETVTVSASLESVRGNRSLFTDLEAENDVLHCVAFAVPKSSSNEEVMFLTVQVKGPTQEFKKRTTVMVKNEDSLVFVQTDKSIYKPGQTVKFRVVSMDENFHPLNELIPLVYIQDPKGNRIAQWQSFQLEGGLKQFSFPLSSEPFQGSYKVVVQKKSGGRTEHPFTVEEFVLPKFEVQVTVPKIITILEEEMNVSVCGLYTYGKPVPGHVTVSICRKYSDASDCHGEDSQAFCEKFSGQLNSHGCFYQQVKTKVFQLKRKEYEMKLHTEAQIQEEGTVVELTGRQSSEITRTITKLSFVKVDSHFRQGIPFFGQVRLVDGKGVPIPNKVIFIRGNEANYYSNATTDEHGLVQFSINTTNVMGTSLTVRVNYKDRSPCYGYQWVSEEHEEAHHTAYLVFSPSKSFVHLEPMSHELPCGHTQTVQAHYILNGGTLLGLKKLSFYYLIMAKGGIVRTGTHGLLVKQEDMKGHFSISIPVKSDIAPVARLLIYAVLPTGDVIGDSAKYDVENCLANKVDLSFSPSQSLPASHAHLRVTAAPQSVCALRAVDQSVLLMKPDAELSASSVYNLLPEKDLTGFPGPLNDQDDEDCINRHNVYINGITYTPVSSTNEKDMYSFLEDMGLKAFTNSKIRKPKMCPQLESQELGQRESESEGSELEGRGSGFKEGVEGKEEEGLGSGFFGFPIGKLRKYFPETWIWDLVVVNSAGVAEVGVTVPDTITEWKAGAFCLSEDAGLGISSTASLRAFQPFFVELTMPYSVIRGEAFTLKATVLNYLPKCIRVSVQLEASPAFLAVPVEKEQAPHCICANGRQTVSWAVTPKSLGNVNFTVSAEALESQELCGTEVPSVPEHGRKDTVIKPLLVEPEGLEKETTFNSLLCPSGGEVSEELSLKLPPNVVEESARASVSVLGDILGSAMQNTQNLLQMPYGCGEQNMVLFAPNIYVLDYLNETQQLTPEIKSKAIGYLNTGYQRQLNYKHYDGSYSTFGERYGRNQGNTWLTAFVLKTFAQARAYIFIDEAHITQALIWLSQRQKDNGCFRSSGSLLNNAIKGGVEDEVTLSAYITIALLEIPLTVTHPVVRNALFCLESAWKTAQEGDHGSHVYTKALLAYAFALAGNQDKRKEVLKSLNEEAVKKDNSVHWERPQKPKAPVGHFYEPQAPSAEVEMTSYVLLAYLTAQPAPTSEDLTSATNIVKWITKQQNAQGGFSSTQDTVVALHALSKYGAATFTRTGKAAQVTIQSSGTFSSKFQVDNNNRLLLQQVSLPELPGEYSMKVTGEGCVYLQTSLKYNILPEKEEFPFALGVQTLPQTCDEPKAHTSFQISLSVSYTGSRSASNMAIVDVKMVSGFIPLKPTVKMLERSNHVSRTEVSSNHVLIYLDKVSNQTLSLFFTVLQDVPVRDLKPAIVKVYDYYETDEFAIAEYNAPCSKDLGNADYKDDDDKGASHHHHHH
